Experiments:
Test in all cases: cell-based or functional assay
[1] = molecular target: T1, IL10Rα/IL2Rγ receptor (human, UniProt Q13651 22-578; P31785 23-369)
T1 sequence (looked up) 1: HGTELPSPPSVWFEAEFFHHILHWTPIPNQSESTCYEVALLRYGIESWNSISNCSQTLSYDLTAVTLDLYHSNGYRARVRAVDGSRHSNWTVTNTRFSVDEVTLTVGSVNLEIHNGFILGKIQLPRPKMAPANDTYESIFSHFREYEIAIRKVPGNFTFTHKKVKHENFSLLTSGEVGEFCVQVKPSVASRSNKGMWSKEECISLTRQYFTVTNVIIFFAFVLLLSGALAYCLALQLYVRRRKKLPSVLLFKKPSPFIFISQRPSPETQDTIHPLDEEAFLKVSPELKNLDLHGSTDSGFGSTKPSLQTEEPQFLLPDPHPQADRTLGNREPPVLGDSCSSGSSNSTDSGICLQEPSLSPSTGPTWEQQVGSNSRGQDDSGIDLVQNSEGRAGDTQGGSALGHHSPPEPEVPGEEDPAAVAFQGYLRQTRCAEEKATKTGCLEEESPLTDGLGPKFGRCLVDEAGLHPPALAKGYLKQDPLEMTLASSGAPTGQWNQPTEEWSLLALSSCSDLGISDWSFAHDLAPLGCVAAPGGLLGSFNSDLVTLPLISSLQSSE
T1 sequence (looked up) 2: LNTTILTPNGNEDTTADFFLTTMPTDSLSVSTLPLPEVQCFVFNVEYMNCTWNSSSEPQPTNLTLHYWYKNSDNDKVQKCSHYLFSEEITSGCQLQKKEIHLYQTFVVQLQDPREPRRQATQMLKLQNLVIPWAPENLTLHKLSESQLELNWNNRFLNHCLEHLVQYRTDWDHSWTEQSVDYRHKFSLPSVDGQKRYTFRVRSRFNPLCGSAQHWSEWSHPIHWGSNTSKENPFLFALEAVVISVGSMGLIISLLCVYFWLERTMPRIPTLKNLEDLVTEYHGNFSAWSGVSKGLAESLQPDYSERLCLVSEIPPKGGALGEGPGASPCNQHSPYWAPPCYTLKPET

[2] = molecular target: T1, IL10Rα/IL2Rγ receptor; remark: listed apart in the source
[3] = molecular target: T1, IL10Rα/IL2Rγ receptor; remark: listed apart in the source
[4] = molecular target: T1, IL10Rα/IL2Rγ receptor; remark: listed apart in the source
[5] = molecular target: T1, IL10Rα/IL2Rγ receptor; remark: listed apart in the source
[6] = molecular target: T1, IL10Rα/IL2Rγ receptor; remark: listed apart in the source

pSTAT3 MFI, B cells, 100 nM (unstimulated 1045) [1]: 1660 MFI
pSTAT3 MFI, CD4+ T cells, 100 nM (unstimulated 1778) [1]: 6350 MFI
pSTAT3 MFI, CD8+ T cells, 100 nM (unstimulated 1288) [1]: 4510 MFI
pSTAT3 MFI, Monocytes, 100 nM (unstimulated 1787) [1]: 2350 MFI
pSTAT3 MFI, NK cells, 100 nM (unstimulated 1149) [1]: 1880 MFI
pSTAT3 MFI, B cells, 0.0001 nM (unstimulated 1193.5) [2]: 1110 MFI
pSTAT3 MFI, B cells, 0.001 nM (unstimulated 1193.5) [2]: 1100 MFI
pSTAT3 MFI, B cells, 0.01 nM (unstimulated 1193.5) [2]: 1090 MFI
pSTAT3 MFI, B cells, 0.1 nM (unstimulated 1193.5) [2]: 1110 MFI
pSTAT3 MFI, B cells, 1 nM (unstimulated 1193.5) [2]: 1290 MFI
pSTAT3 MFI, B cells, 10 nM (unstimulated 1193.5) [2]: 1840 MFI
pSTAT3 MFI, B cells, 100 nM (unstimulated 1193.5) [2]: 1850 MFI
pSTAT3 MFI, CD4 T cells, 0.0001 nM (unstimulated 1887) [3]: 1800 MFI
pSTAT3 MFI, CD4 T cells, 0.001 nM (unstimulated 1887) [3]: 1800 MFI
pSTAT3 MFI, CD4 T cells, 0.01 nM (unstimulated 1887) [3]: 1850 MFI
pSTAT3 MFI, CD4 T cells, 0.1 nM (unstimulated 1887) [3]: 2210 MFI
pSTAT3 MFI, CD4 T cells, 1 nM (unstimulated 1887) [3]: 4730 MFI
pSTAT3 MFI, CD4 T cells, 10 nM (unstimulated 1887) [3]: 7240 MFI
pSTAT3 MFI, CD4 T cells, 100 nM (unstimulated 1887) [3]: 7070 MFI
pSTAT3 MFI, NK cells, 0.0001 nM (unstimulated 1315) [4]: 1220 MFI
pSTAT3 MFI, NK cells, 0.001 nM (unstimulated 1315) [4]: 1230 MFI
pSTAT3 MFI, NK cells, 0.01 nM (unstimulated 1315) [4]: 1220 MFI
pSTAT3 MFI, NK cells, 0.1 nM (unstimulated 1315) [4]: 1250 MFI
pSTAT3 MFI, NK cells, 1 nM (unstimulated 1315) [4]: 1520 MFI
pSTAT3 MFI, NK cells, 10 nM (unstimulated 1315) [4]: 2040 MFI
pSTAT3 MFI, NK cells, 100 nM (unstimulated 1315) [4]: 2130 MFI
pSTAT3 MFI, CD8 T cells, 0.0001 nM (unstimulated 1446) [5]: 1390 MFI
pSTAT3 MFI, CD8 T cells, 0.001 nM (unstimulated 1446) [5]: 1370 MFI
pSTAT3 MFI, CD8 T cells, 0.01 nM (unstimulated 1446) [5]: 1380 MFI
pSTAT3 MFI, CD8 T cells, 0.1 nM (unstimulated 1446) [5]: 1590 MFI
pSTAT3 MFI, CD8 T cells, 1 nM (unstimulated 1446) [5]: 3260 MFI
pSTAT3 MFI, CD8 T cells, 10 nM (unstimulated 1446) [5]: 4850 MFI
pSTAT3 MFI, CD8 T cells, 100 nM (unstimulated 1446) [5]: 5020 MFI
pSTAT3 MFI, Monocytes, 0.0001 nM (unstimulated 2116) [6]: 1990 MFI
pSTAT3 MFI, Monocytes, 0.001 nM (unstimulated 2116) [6]: 1970 MFI
pSTAT3 MFI, Monocytes, 0.01 nM (unstimulated 2116) [6]: 1950 MFI
pSTAT3 MFI, Monocytes, 0.1 nM (unstimulated 2116) [6]: 1960 MFI
pSTAT3 MFI, Monocytes, 1 nM (unstimulated 2116) [6]: 2110 MFI
pSTAT3 MFI, Monocytes, 10 nM (unstimulated 2116) [6]: 2470 MFI
pSTAT3 MFI, Monocytes, 100 nM (unstimulated 2116) [6]: 2470 MFI
B1: DR465(DR240-DR231) (bispecific antibody)
chain: QVQLQESGGGSVQAGGSLRLSCGASGYTYSSYCMGWFRQVPGKEREGVAVIDSDGSTSYADSVKGRFTISKDNGKNTLYLQMNSLKPEDTAMYYCAADLGHYRPPCGVLYLGMDYWGKGTQVTVSSGGGSQVQLQESGGGSVQAGGSLRLSCTASGFTFDDREMNWYRQAPGNECELVSTISSDGSTYYADSVKGRFTISQDNAKNTVYLQMDSVKPEDTAVYYCAADFMIAIQAPGAGCWGQGTQVTVSSASHHHHHH

From patent publication US20250163162A1 (SYNTHEKINE, published 2025)
